According to US7482008B1, “Human T cell reactive feline protein (TRFP) isolated from house dust and uses therefor” (Merck Patent GmbH, priority 1989, dated 2009):

B1: peptide YXZ: recombinant peptide: peptide Y, peptide X and peptide Z linked in this order (protein)
chain: MGHHHHHHEFKALPVVLENARILKNCVDAKMTEEDKEKRDVDLFLTGTPDEYVEQVAQYKALPVFFAVANGNELLLDLSLTKVNATEPER
B2: peptide YZX: recombinant peptide: peptide Y linked to peptide Z linked to peptide X (SEQ ID NO: 103) (protein)
chain: MGHHHHHHEFLVPRGSKALPVVLENARILKNCVDAKMTEEDKEFFAVANGNELLLDLSLTKVNATEPERKRDVDLFLTGTPDEYVEQVAQYKALPV
B3: peptide XZY: recombinant peptide: peptide X, peptide Z and peptide Y linked in this order (protein)
chain: MGHHHHHHEFKRDVDLFLTGTPDEYVEQVAQYKALPVFFAVANGNELLLDLSLTKVNATEPERKALPVVLENARILKNCVDAKMTEEDKE
B4: peptide ZYX: recombinant peptide: peptide Z, peptide Y and peptide X linked in this order (protein)
chain: MGHHHHHHLVPRGSFFAVANGNELLLDLSLTKVNATEPERKALPVVLENARILKNCVDAKMTEEDKEKRDVDLFLTGTPDEYVEQVAQYKALPV
B5: recombinant chain 2: recombinant TRFP chain 2 expressed in E. coli (protein, UniProt P30440 18-109, looked up)
Major allergen I polypeptide …: VKMAETCPIFYDVFFAVANGNELLLDLSLTKVNATEPERTAMKKIQDCYVENGLISRVLDGLVMTTISSSKDCMGEAVQNTVEDLKLNTLGR
modifications: expressed in E. coli
notes: recombinant TRFP chain 2 expressed in E. coli

How the values were obtained:
[1] = test system: human IgE (cat allergic patient plasma); experiment: Direct binding ELISA of human IgE to coated antigen; settings: direct binding ELISA or similar protocol
Protocol: The basic format of these ELISA assays was a direct binding assay wherein the antigen was coated onto the wells of a 96 well microtitre dish and then antibodies in solution are added and assayed for the binding capacity. The protocol for these assays was as follows:
The peptides were conjugated to HSA (human serum albumin) by two different methods based on their chemical structure. […] Both conjugates were filter purified and dialyzed against PBS. In the ELISA assay, the unbound coating antigens were removed and the wells were blocked with 0.5% gelatin in PBS, 200 μl/well for 2 hours at room temperature. The antibody solution was a pool of plasma samples from 20 patients that were skin test positive for commercial cat extract which was serially diluted with PBS-Tween 20 (PBS with 0.05% nonionic detergent Tween-Sigma, St. Louis Mo.) and 100 μl/well was added and incubated overnight at 4° C. (plasma dilutions are tested in duplicate). […] The second antibody (biotinylated goat anti-Human IgE, 1:1000 Kirkegaard & Perry Laboratories Inc. Gaithersburg, Md.), was added at 100 μl/well for one hour at room temperature. This solution was removed and streptavidin-HRPO, 1:1000, (Southern Biotechnology Associates, Inc., Birmingham, Ala.) was then added at 100 μl/well for one hour at room temperature (all wells were washed three times with PBS-Tween between each incubation step). TMB Membrane Peroxidase Substrate system (Kirkegaard & Perry Laboratories) was freshly mixed, and added at 100 μl/well. The color was allowed to develop for 2-5 minutes. The reaction was stopped by the addition of […] of 1 M phosphoric acid. Plates are read on a Microplate EL 310 Autoreader (Biotek Instruments, Winooski, Vt.) with a 450 nm filter. The absorbance levels of duplicate wells were averaged.

[2] = test system: T cells from cat-allergic patients; experiment: Secondary proliferation assay of T cells primed with TRFP, peptide YXZ or peptide YZX; assay type: cell-based, human
Protocol: The human cat allergic T cell response to peptides produced as above was examined. […] Peptide YZX was cleaved with thrombin as described in Example 25. Viable cells were then purified by Ficoll-Hypaque centrifugation and cultured for 2 additional weeks in RPMI-1640/5% AB serum containing 5 units recombinant human IL-2/ml and 5 units recombinant human IL-4/ml. The resting T cells were then tested in a secondary proliferation assay using a 96 well microtiter plate to assess T cell responses to various TRFP proteins or peptides (TRFP antigens). For assay, 2×10^4 resting T cells were cultured for 3 days at 37° C. in the presence of 2×10^4 autologous Epstein-Barr virus transformed B cells (25,000 Rads) as antigen presenting cells with various concentrations of antigen in 200 μl per well. Each well then received 1 μCi tritiated thymidine for 16 hours. The counts incorporated were collected onto glass fiber filters and processed for liquid scintillation counting. The stimulation indices for responses to each antigen were then calculated as the maximum CPM in response to antigen divided by the medium control CPM. A stimulation index of 2.5 was considered to be a positive T cell response. A summary of the results of 3 such experiments (patients 522, 519, and 386 is shown in FIG. 35a, FIG. 35b and FIG. 35c). As compared to the experiments shown in FIGS. 35a and 35b in the experiment shown in […], Fel-1.4 (chain 1, amino acid residues 6-17) was substituted for Fel-1.2 (chain 1, amino acid residues 1-17) and Fel-33.3 (chain 2, amino acid residues 26-40) was substituted for Fel-18 (chain 2, amino acid residues 23-48) in order to more closely resemble the constituent amino acids of peptides X and Z. In addition, in this experiment one peptide derived from the Y-Z junction of peptide YZX (amino acid residues 50-55 from chain 1 of TRFP and amino acid residues 14-19 from chain 2 of TRFP) and one peptide derived from the Z-X junction of peptide YZX (amino acid residues 34-39 of chain 2 of TRFP and amino acid residues 7-12 of chain 1 of TRFP) were synthesized and tested. These junction peptides were produced in order to determine whether these areas of peptide YZX produce a non-native epitope when formed in the peptide.

[3] = test system: B6CBAF1 mice; experiment: Murine T cell response after immunization with peptide YZX, IL-2 production (CTLL-2); assay type: in vivo, mouse; settings: mice immunized with 100 μg peptide YZX in CFA; label = antigen in culture
Protocol: 10 B6CBAF1 mice were immunized subcutaneously at the base of the tail and in the thigh region with 100 μg of peptide YZX in complete Freund's adjuvant. After 10 days, the inguinal, paraaortic, and popliteal nodes of the immunized mice were removed and pooled. The lymph node cells were suspended in cold RPMI 1640 with 1% fetal bovine serum (FBS) by passage through stainless steel mesh. The cells were washed 2 times with cold RPMI-1640 containing 1% FBS and maintained at 4° C.
The lymph node cells were plated at 4×10^6 cells/ml in RPMI 1640 with 10% FBS, 250 μg/ml penicillin G, 100 μg/ml streptomycin, and 5×10^−5 M 2-mercaptoethanol. […] After 24 hours, 50 μl of supernatant was removed from each culture and frozen overnight to eliminate live cell carryover. The supernatant was warmed to […] and washed. CTLL-2 indicator cells (ATCC # T1B 214) were added (5×10^3 cells/well). This indicator cell line requires IL-2 for continued growth. After 24 hours, H^3-thymidine (1 μCi/well) was added and the cells were further incubated for 4 hours. The plates were frozen and thawed, harvested on a Tomtec 96 well harvester (Tomtec, Orange, Conn.), and counted on a Betaplate beta counter (Pharmacia, Gaithersburg, Md.).

[4] = test system: human IgE; experiment: SDS/PAGE Western immunoblot of human IgE binding, plasma from patient #417; settings: patient #417 plasma
Protocol: Western immunoblot analysis of the peptides produced in above was performed. The concentration of all protein samples (e.g., TRFP, recombinant chain 1 of TRFP, recombinant chain 2 of TRFP, peptide XYZ, peptide XZY, peptide YXZ, peptide YZX, peptide ZXY and peptide ZYX) for gel electrophoresis was determined by the BCA method (Pierce Co.). All protein samples were loaded on the gel at 5 μg/lane except TRFP at 10 μg/lane. Protein separation was carried out on a 15% acrylamide gel, and transfer was performed by electroblotting at 1.5 Amps for 1.5 hours onto nitrocellulose paper (Schleicher and Schuell, 0.1 microns) in a Hoeffer apparatus according to the protocol of Towbin, H., T. Stachlin, and J. Gordon, PNAS 76:4350 (1979). Proteins were rinsed in blot solution (25 mM Tris-HCl 7.5, 0.171 M NaCl and 0.5 ml/liter Tween 20). The blot was then blocked for one hour in blocking solution (1% milk in blot solution). Plasma from patient #417, used as a primary antibody source, was diluted in blocking solution to 10% and preabsorbed for 1.5 hours with unused nitrocellulose (2 cm×15 cm). The prepared human plasma was then incubated overnight on an orbital shaker with the protein blot section of interest. Following the first antibody incubation the blot section was washed three times, each wash involved a fifteen minute incubation in blot solution. The second antibody, specific for human IgE (biotinylated goat anti-human IgE, KPL Inc.), was diluted 1:2500 in blot solution and the incubation proceeded for two hours. Excess second antibody was subsequently removed by three 15 minute incubations with blot solution. ^125I Iodinated streptavidin (Amersham) was diluted 1:2500 in blot solution and incubated with blots for 1 hour, at 2 μCi in a 50 ml incubation volume. Blot sections were then washed with blot solution until the detectable radioactivity in the waste solution decreased to background levels. The blot section was then wrapped in saran wrap and exposed to film overnight with a cronex intensifying screen at −80° C.

[5] = test system: human IgE; experiment: ELISA of human IgE binding, plasma from patient #669; settings: patient #669 plasma
Protocol: Corning assay plates (#25882-96) were coated with 10 μg/ml of each coating antigen (i.e., TRFP, chain 1 (recombinant chain 1 of TRFP), chain 2 (recombinant chain 2 of TRFP), peptide XYZ, peptide XZY, peptide YXZ, peptide YZX, peptide ZXY and peptide ZYX) listed in FIG. 34 at 50 μl/well and incubated overnight at 4° C. The coating antigens were removed and the wells were blocked with 0.5% gelatin in PBS, 200 μl/well for 2 hours at room temperature. Plasma from patient #669 was serially diluted with PBS-Tween 20 (PBS with 0.05% nonionic detergent Tween-20 Sigma, St. Louis Mo.) and 100 μl/well was added and incubated overnight at 4° C. (plasma dilutions are tested in duplicate). The second antibody (biotinylated goat anti-Human IgE, 1:1000, Kirkegaard & Perry Laboratories Inc. Gaithersburg, Md.), was added at 100 μl/well for one hour at room temperature. This solution was removed and streptavidin-HRPO, 1:10,000 (Southern Biotechnology Associates, Inc., Birmingham, Ala.) was then added at 100 μl/well for one hour at room temperature (all wells were washed three times with PBS-Tween between each incubation step). TMB Membrane Peroxidase Substrate system (Kirkegaard & Perry Laboratories) was freshly mixed, and added at 100 μl/well. The color was allowed to develop for 2-5 minutes. The reaction was stopped by the addition of 100 μl/well of 1M phosphoric acid. Plates were read on a Microplate EL 310 Autoreader (Biotek Instruments, Winooski, Vt.) with a 450 nm filter. The absorbance levels of duplicate wells were averaged.

[6] = patient 386, T cells primed with YZX
[7] = patient 519, cells primed with peptide YXZ

Row | Molecule | specific IgE binding [1] | T cell response of pooled lymph node cells (IL-2 production) [3] | IgE binding, Western immunoblot [4] | other results
1 | Fel 31-1: TRFP chain 2 amino acids 14-40 (VTQALGVKMAETCPIFYDVFFAVANGN) | None of these peptides showed IgE binding |  |  | 
2 | peptide Z: amino acid residues 14-39 from chain 2 of TRFP (SEQ. ID. NO: 19) (FFAVANGNELLLDLSLTKVNATEPER) | None of these peptides showed IgE binding | significant response |  | T cell response [2, 6]: respond at a similar level or better; T cell response [2, 7]: positive responses; T cell response ([2]; patient 522, T cells primed with YXZ): respond at a similar level or better
3 | Fel 8-1: TRFP chain 1 amino acids 5-33 (AVKRDVDLFLTGTPDEYVEQVAQYKALPV; UniProt P30438 27-55, looked up, fragment) | None of these peptides showed IgE binding |  |  | 
4 | B1 |  |  | negative for IgE binding | T cell response [2, 7]: positive responses; T cell response ([2]; patient 519, native TRFP-primed T cells): respond; T cell response ([2]; patient 522, T cells primed with native TRFP, SI 2.5 positive): positively respond
5 | B2 |  | respond well | negative for IgE binding | T cell response [2, 6]: respond at a similar level or better; T cell response ([2]; patient 386, T cells primed with native TRFP): positively respond
6 | B3 |  | strong T cell responses | negative for IgE binding | 
7 | B4 |  | strong T cell responses | negative for IgE binding | 
8 | B5 |  |  | reduced compared to chain 1 | IgE binding, ELISA [5]: somewhat lower binding
